{"source": "paper PMC3161976", "key": {"[1]": {"biological_target": "GST-Tnp3 (Transportin 3), full length (human) (UniProt Q9Y5L0)", "sequence (Q9Y5L0 whole entry)": "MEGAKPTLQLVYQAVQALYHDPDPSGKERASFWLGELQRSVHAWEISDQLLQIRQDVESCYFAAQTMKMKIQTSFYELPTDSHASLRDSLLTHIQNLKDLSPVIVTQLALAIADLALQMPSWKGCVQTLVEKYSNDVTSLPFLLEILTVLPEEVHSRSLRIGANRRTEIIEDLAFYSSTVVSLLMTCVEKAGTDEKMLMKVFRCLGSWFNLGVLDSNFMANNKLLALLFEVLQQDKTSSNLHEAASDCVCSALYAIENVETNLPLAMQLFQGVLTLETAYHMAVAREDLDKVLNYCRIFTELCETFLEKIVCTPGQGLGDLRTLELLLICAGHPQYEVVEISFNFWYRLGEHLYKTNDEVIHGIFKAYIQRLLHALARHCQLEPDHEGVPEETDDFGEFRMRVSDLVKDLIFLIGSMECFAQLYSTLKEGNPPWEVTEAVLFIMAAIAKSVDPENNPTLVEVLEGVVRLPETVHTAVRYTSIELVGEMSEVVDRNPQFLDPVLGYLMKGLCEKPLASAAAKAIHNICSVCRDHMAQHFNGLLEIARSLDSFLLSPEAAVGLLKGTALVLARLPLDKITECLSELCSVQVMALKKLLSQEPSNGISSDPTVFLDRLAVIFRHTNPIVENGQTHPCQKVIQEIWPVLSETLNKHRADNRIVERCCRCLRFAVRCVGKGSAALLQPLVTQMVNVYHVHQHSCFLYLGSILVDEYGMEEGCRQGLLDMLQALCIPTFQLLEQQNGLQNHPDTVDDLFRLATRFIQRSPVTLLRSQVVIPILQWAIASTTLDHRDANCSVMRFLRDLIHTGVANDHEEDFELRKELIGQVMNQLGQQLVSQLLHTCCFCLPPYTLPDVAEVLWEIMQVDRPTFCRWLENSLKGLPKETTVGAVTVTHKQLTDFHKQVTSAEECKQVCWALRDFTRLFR", "assay": "pull-down; GST-Tnp3, GST-Tnp3 DC825 or GST-Xpo-t held on glutathione-Sepharose 4B beads, with purified HIV-1 vector disrupted by gentle sonication (50 µl), with or without RanQ69L-GTP; binding buffer 50 mM Hepes pH 7.3, 200 mM NaCl, 2 mM Mg(Ac)2, 10 µM GTP; 4°C; silver stain and Western blot with anti-capsid antibody, ImageJ quantification"}, "[2]": {"biological_target": "GST-Tnp3 DC825 deletion mutant (human) (UniProt Q9Y5L0)", "sequence (Q9Y5L0 1-825, stated change not applied)": "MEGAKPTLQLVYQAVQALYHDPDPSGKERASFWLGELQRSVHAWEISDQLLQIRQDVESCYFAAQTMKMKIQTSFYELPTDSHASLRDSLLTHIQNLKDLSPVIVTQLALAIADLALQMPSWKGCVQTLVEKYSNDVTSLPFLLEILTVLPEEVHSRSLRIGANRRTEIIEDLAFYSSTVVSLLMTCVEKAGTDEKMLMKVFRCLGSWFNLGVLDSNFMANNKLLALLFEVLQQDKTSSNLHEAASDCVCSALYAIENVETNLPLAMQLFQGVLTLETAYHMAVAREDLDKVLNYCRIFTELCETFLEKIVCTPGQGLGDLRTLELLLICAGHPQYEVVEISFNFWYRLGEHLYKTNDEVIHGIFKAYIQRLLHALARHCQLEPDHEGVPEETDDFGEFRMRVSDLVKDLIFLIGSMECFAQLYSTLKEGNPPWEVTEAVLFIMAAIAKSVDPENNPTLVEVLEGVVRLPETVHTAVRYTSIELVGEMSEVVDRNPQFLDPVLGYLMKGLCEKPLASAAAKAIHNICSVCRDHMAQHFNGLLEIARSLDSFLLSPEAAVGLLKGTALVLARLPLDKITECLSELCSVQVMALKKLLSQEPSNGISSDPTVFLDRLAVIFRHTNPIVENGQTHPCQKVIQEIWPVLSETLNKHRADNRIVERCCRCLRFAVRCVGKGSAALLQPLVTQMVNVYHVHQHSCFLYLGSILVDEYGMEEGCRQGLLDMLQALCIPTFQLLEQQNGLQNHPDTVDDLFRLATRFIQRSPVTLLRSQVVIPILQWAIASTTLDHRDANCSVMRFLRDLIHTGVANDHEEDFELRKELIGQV", "assay": "pull-down; GST-Tnp3, GST-Tnp3 DC825 or GST-Xpo-t held on glutathione-Sepharose 4B beads, with purified HIV-1 vector disrupted by gentle sonication (50 µl), with or without RanQ69L-GTP; binding buffer 50 mM Hepes pH 7.3, 200 mM NaCl, 2 mM Mg(Ac)2, 10 µM GTP; 4°C; silver stain and Western blot with anti-capsid antibody, ImageJ quantification"}}, "data": [{"substance": "HIV-1 capsid protein (CA, p24) of purified HIV-1 vector particles (natural protein)", "values": [{"measurement": "fold increase of binding with RanGTP against without", "setting": "[1]", "result": 2.5, "unit": "fold"}, {"measurement": "fold reduction of binding against full-length Tnp3", "setting": "[2]", "result": 3, "unit": "fold"}]}]}
